The subject of series [1] is HeLa Kyoto. Nature of the series: solubility in G1/S (NP-40 vs SDS abundance) (log2 ratio); higher = more soluble. As to conditions: cell cycle stage: G1/S.
Series [2] has as its system HeLa Kyoto. Nature of the series: melting temperature (median over replicates), in situ; higher = more thermally stable.
The subject of series [3] is HeLa Kyoto. Nature of the series: solubility change mitosis vs G1/S (difference of NP-40 vs SDS log2 ratios) (log2 ratio difference); higher = more soluble in mitosis.
In series [4] the test system is HeLa Kyoto. Nature of the series: thermal stability score vs G1/S (z-score of summed log2 fold changes over temperatures); higher = more thermally stable than in G1/S.
The mark [5] stands for this setting: cell cycle stage: early G1 (4.5 h after nocodazole release).

These results are taken from the supplement of paper PMC5998384.
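For melting temperature (median over replicates), in situ in this document: HeLa Kyoto cells synchronized by double thymidine or nocodazole block, proteins quantified by TMT10plex mass spectrometry, three independent biological replicates.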
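For solubility change mitosis vs G1/S (difference of NP-40 vs SDS log2 ratios) in this document: synchronized HeLa Kyoto cells (double thymidine block for G1/S, nocodazole release for mitosis), protein amounts in NP-40 versus SDS lysates quantified by mass spectrometry, three biological replicates.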
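For solubility in G1/S (NP-40 vs SDS abundance) in this document: HeLa Kyoto cells arrested at G1/S by double thymidine block, proteins quantified by TMT10plex mass spectrometry in mild NP-40 versus SDS extracts, three biological replicates.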
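For thermal stability score vs G1/S (z-score of summed log2 fold changes over temperatures) in this document: synchronized HeLa Kyoto cells, proteins quantified by TMT10plex mass spectrometry, three biological replicates, mitosis taken 0.5 h after nocodazole release, G1/S directly after double thymidine block.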

As to “MPYLGSEDVVKELKKALCNPHIQADRLRYRNVIQRVIRYMTQGLDMSGVFMEMVKASATVDIVQKKLVYLYMCTYAPLKPDLALLAINTLCKDCSDPNPMVRGLALRSMCSLRMPGVQEYIQQPILNGLRDKASYVRRVAVLGCAKMHNLHGDSEVDGALVNELYSLLRDQDPIVVVNCLRSLEEILKQEGGVVINKPIAHHLLNRMSKLDQWGQAEVLNFLLRYQPRSEEELFDILNLLDSFLKSSSPGVVMGATKLFLILAKMFPHVQTDVLVRVKGPLLAACSSESRELCFVALCHVRQILHSLPGHFSSHYKKFFCSYSEPHYIKLQKVEVLCELVNDENVQQVLEELRGYCTDVSADFAQAAIFAIGGIARTYTDQCVQILTELLGLRQEHITTVVVQTFRDLVWLCPQCTEAVCQALPGCEENIQDSEGKQALIWLLGVHGERIPNAPYVLEDFVENVKSETFPAVKMELLTALLRLFLSRPAECQDMLGRLLYYCIEEEKDMAVRDRGLFYYRLLLVGIDEVKRILCSPKSDPTLGLLEDPAERPVNSWASDFNTLVPVYGKAHWATISKCQGAERCDPELPKTSSFAASGPLIPEENKERVQELPDSGALMLVPNRQLTADYFEKTWLSLKVAHQQVLPWRGEFHPDTLQMALQVVNIQTIAMSRAGSRPWKAYLSAQDDTGCLFLTELLLEPGNSEMQISVKQNEARTETLNSFISVLETVIGTIEEIKS [AP4B1]”, in the series with HeLa Kyoto [1], the “solubility in G1/S (log2)” value was -0.123. For the same substance, the figures for the melting temperature in the series on HeLa Kyoto [2] (cell cycle stage: G1/S) and in the series with HeLa Kyoto [2] (cell cycle stage: mitosis) were 49.3 °C and 49.7 °C, respectively. The “solubility change mitosis (log2)” value in the series with HeLa Kyoto [3] is -0.136. The thermal stability score is -0.012 in the series with HeLa Kyoto [4] (setting [5]) and 0.298 in the series with HeLa Kyoto [4] (cell cycle stage: mitosis).

Regarding “MPTVSVKRDLLFQALGRTYTDEEFDELCFEFGLELDEITSEKEIISKEQGNVKAAGASDVVLYKIDVPANRYDLLCLEGLVRGLQVFKERIKAPVYKRVMPDGKIQKLIITEETAKIRPFAVAAVLRNIKFTKDRYDSFIELQEKLHQNICRKRALVAIGTHDLDTLSGPFTYTAKRPSDIKFKPLNKTKEYTACELMNIYKTDNHLKHYLHIIENKPLYPVIYDSNGVVLSMPPIINGDHSRITVNTRNIFIECTGTDFTKAKIVLDIIVTMFSEYCENQFTVEAAEVVFPNGKSHTFPELAYRKEMVRADLINKKVGIRETPENLAKLLTRMYLKSEVIGDGNQIEIEIPPTRADIIHACDIVEDAAIAYGYNNIQMTLPKTYTIANQFPLNKLTELLRHDMAAAGFTEALTFALCSQEDIADKLGVDISATKAVHISNPKTAEFQVARTTLLPGLLKTIAANRKMPLPLKLFEISDIVIKDSNTDVGAKNYRHLCAVYYNKNPGFEIIHGLLDRIMQLLDVPPGEDKGGYVIKASEGPAFFPGRCAEIFARGQSVGKLGVLHPDVITKFELTMPCSSLEINVGPFL [FARSB]”, in the series on HeLa Kyoto [1], the “solubility in G1/S (log2)” value was 0.00374. Further, the melting temperature in the series on HeLa Kyoto [2] (cell cycle stage: G1/S) is 50.4 °C; with HeLa Kyoto [2] (cell cycle stage: mitosis), 50.2 °C. For the same substance, the “solubility change mitosis (log2)” value in the series with HeLa Kyoto [3] is -0.031. The figures for the thermal stability score with HeLa Kyoto [4] (setting [5]) and with HeLa Kyoto [4] (cell cycle stage: mitosis) were 2.32 and 0.692, respectively.

“MATNWGSLLQDKQQLEELARQAVDRALAEGVLLRTSQEPTSSEVVSYAPFTLFPSLVPSALLEQAYAVQMDFNLLVDAVSQNAAFLEQTLSSTIKQDDFTARLFDIHKQVLKEGIAQTVFLGLNRSDYMFQRSADGSPALKQIEINTISASFGGLASRTPAVHRHVLSVLSKTKEAGKILSNNPSKGLALGIAKAWELYGSPNALVLLIAQEKERNIFDQRAIENELLARNIHVIRRTFEDISEKGSLDQDRRLFVDGQEIAVVYFRDGYMPRQYSLQNWEARLLLERSHAAKCPDIATQLAGTKKVQQELSRPGMLEMLLPGQPEAVARLRATFAGLYSLDVGEEGDQAIAEALAAPSRFVLKPQREGGGNNLYGEEMVQALKQLKDSEERASYILMEKIEPEPFENCLLRPGSPARVVQCISELGIFGVYVRQEKTLVMNKHVGHLLRTKAIEHADGGVAAGVAVLDNPYPV [GSS]”: the “solubility in G1/S (log2)” value with HeLa Kyoto [1] was 0.238. For the same substance, the melting temperature in the series with HeLa Kyoto [2] (cell cycle stage: G1/S) and with HeLa Kyoto [2] (cell cycle stage: mitosis) was 58.6 °C in each case. Besides, the “solubility change mitosis (log2)” value in the series on HeLa Kyoto [3] was -0.0933. The thermal stability score was -2.26 in the series with HeLa Kyoto [4] (setting [5]) and -1.74 in the series with HeLa Kyoto [4] (cell cycle stage: mitosis).

Take “MANDSGGPGGPSPSERDRQYCELCGKMENLLRCSRCRSSFYCCKEHQRQDWKKHKLVCQGSEGALGHGVGPHQHSGPAPPAAVPPPRAGAREPRKAAARRDNASGDAAKGKVKAKPPADPAAAASPCRAAAGGQGSAVAAEAEPGKEEPPARSSLFQEKANLYPPSNTPGDALSPGGGLRPNGQTKPLPALKLALEYIVPCMNKHGICVVDDFLGKETGQQIGDEVRALHDTGKFTDGQLVSQKSDSSKDIRGDKITWIEGKEPGCETIGLLMSSMDDLIRHCNGKLGSYKINGRTKAMVACYPGNGTGYVRHVDNPNGDGRCVTCIYYLNKDWDAKVSGGILRIFPEGKAQFADIEPKFDRLLFFWSDRRNPHEVQPAYATRYAITVWYFDADERARAKVKYLTGEKGVRVELNKPSDSVGKDVF [EGLN1]”: in the series with HeLa Kyoto [1], the “solubility in G1/S (log2)” value amounted to 0.331. Moreover, the melting temperature was found to be 49.3 °C in the series with HeLa Kyoto [2] (cell cycle stage: G1/S) and 50.2 °C in the series on HeLa Kyoto [2] (cell cycle stage: mitosis). Also, the “solubility change mitosis (log2)” value in the series on HeLa Kyoto [3] came out at 0.0496. Also, the thermal stability score in the series on HeLa Kyoto [4] (setting [5]) was found to be 2.53; in the series with HeLa Kyoto [4] (cell cycle stage: mitosis), 0.714.

As to ZNF629, in the series on HeLa Kyoto [1], the “solubility in G1/S (log2)” value was -0.355. Also, the melting temperature amounted to 53.4 °C in the series on HeLa Kyoto [2] (cell cycle stage: G1/S) and 52.9 °C in the series with HeLa Kyoto [2] (cell cycle stage: mitosis). For the same substance, in the series with HeLa Kyoto [3], the “solubility change mitosis (log2)” value was -0.0563. The values for the thermal stability score in the series on HeLa Kyoto [4] (setting [5]) and in the series on HeLa Kyoto [4] (cell cycle stage: mitosis) were 0.477 and -1.32, respectively.
